Measurements as given in US7846202B2, “Coated implantable medical device” (Cook Incorporated, priority 1995, dated 2010).

Tests used:
[1] = In-vitro flow system perfusion of antibody-loaded stents (antibody remaining on stent); format: physicochemical; conditions: 10 ml/min, 1% BSA in PBS, after approximately 10 days perfusion
Procedure: In one example, device 10 is a stainless steel GR II™ stent in which the stainless steel base material 14 of structure 12 is coated with a polymer and, in particular, parylene. This adsorbent polymer layer 16 of parylene is approximately 230,000 Å thick. Bioactive material layer 18 of the antiplatelet GP IIb/IIIa antibody (AZ1) was passively loaded on adsorbent polymer layer 16. The polymer coated stainless steel stents were immersed for approximately 24 hours in a buffered aqueous solution of AZ1 antibody (1 mg/ml, pH=7.2) at 37° C. AZ1 is a monoclonal anti-rabbit platelet glycoprotein (GP) IIb/IIIa antibody.
In another example, c7E3 Fab as bioactive material layer 18 is attached to polymer coating layer 16. Bioactive material c7E3 Fab is a chimeric monoclonal antibody that acts upon the […] integrin on platelets to inhibit their aggregation. This antibody or receptor blocker may be used in humans intravenously to prevent thrombosis during coronary angioplasty. This receptor blocker is also known as ReoPro™ available from Eli Lilly, Indianapolis, Ind. Bioactive material layer 18 of the antiplatelet GP IIb/IIIa antibody (c7E3 Fab) was passively loaded on adsorbent polymer layer 16. […]

[2] = In vitro release rate of bioactive material from beneath porous parylene layer; format: physicochemical; conditions: dexamethasone layer over heparin layer, compared with the material alone
Procedure: When the at least one layer 18 of bioactive material contains a relatively soluble material such as heparin, the at least one layer 18 preferably contains a total of from about 0.1 to about 4 mg of bioactive material per cm^2 of the gross surface area of the structure 12. This provides a release rate for the heparin (measured in vitro) which is desirably in the range of 0.1 to 0.5 mg/cm^2 per day, and preferably about 0.25 mg/cm^2 per day, under typical blood flows through vascular stents. It should be noted that the solubility of dexamethasone may be adjusted as desired, with or without the inclusion of heparin, by mixing it with one or more of its relatively more soluble derivatives, such as dexamethasone sodium phosphate.
For example, when the structure 12 of the device 10 is configured as a vascular stent, it is advantageous for the at least one layer 18 to contain relatively soluble heparin, and the second layer 22 to contain relatively less soluble dexamethasone. […] More particularly, when dexamethasone is disposed by itself beneath a porous parylene layer 20 dimensioned as disclosed above, its release rate is negligible; an adequate release rate is obtained only when the thickness of the porous layer 20 is reduced by a factor of ten or more. […]

Substance | fraction of loaded antibody remaining on the stent [1] | change of release rate in heparin/dexamethasone two-layer device [2]
c7E3 Fab: chimeric monoclonal antibody that acts upon the […] integrin on platelets to inhibit their aggregation | approximately half | 
heparin |  | lowered
